The source of these data is article PMC6078384 (Journal of structural biology, 2013).

The data set deals with the molecule itself. Nature of the data set: SEC. (In general: SEC sorts molecules by how far they enter the pores of the column.)

B1: ΔN71–AtTHIC (N-terminally truncated Arabidopsis thaliana THIC, HMP-P synthase, lacking the first 71 amino acids) (enzyme)
chain: not shown
Usually stoichiometry N stands for the number of molecules, sites or subunits per partner or assembly. Consider B1, for which the “stoichiometry N” value was 2.
